Several values for one entry are separate records, joined by “and”; a condition that tells them apart may be missing. Equal values may be shown once.
What was measured:
[1] = target: S36A mutant human apolipoprotein A-I, recombinant (human); test: cross-linking
[2] = target: S36A mutant human apolipoprotein A-I, recombinant (human); test: AUC
[3] = target: wild-type (WT) human apolipoprotein A-I, recombinant (human) (UniProt P02647); test: native gel or EMSA
[4] = target: wild-type (WT) human apolipoprotein A-I, recombinant (human) (UniProt P02647); test: AUC

| stoichiometry N [1] | Ka [2] [M⁻¹] | stoichiometry N [2] | stoichiometry N [3] | Ka [4] [M⁻¹] | Substance |
| --- | --- | --- | --- | --- | --- |
| 2 | 6.12e+14 | 4 |  |  | S36A mutant human apolipoprotein A-I, recombinant (natural protein) |
|  |  |  | 2 and 4 | 8.56e+14 | wild-type (WT) human apolipoprotein A-I, recombinant (from UniProt P02647 19-267) (natural protein) |

— paper PMC2999918
